The results in this text go back to patent US20040092720A1 (US Dept. of Health and Human Services, published 2004).

One assay has as its target T1, recombinant human IL-6 (human, UniProt P05231 30-212, labeled with radioactive iodine).
T1 construct: Labeled probe in solution, added to wells that carry the synthetic peptides; also called IL-6 ligand; Interleukin-6
In words: radioiodinated IL-6 on peptide array.
Regarding HFTIPKEQYTIINRTASSVTFTDI [Peptide E8], the Counts/minute bound was 1140 counts/minute. KMRCEWDGGRETHLETNFTLKSEW [Peptide E15]: the Counts/minute bound is 1570 counts/minute.

For the molecule SDWSEEASGITYEDRPSKAPSFWY [Peptide E32], the Counts/minute bound was 1160 counts/minute. Consider RSSFTVQDLKPFTEYVFRIRCMKE [Peptide E29], for which the Counts/minute bound amounted to 1320 counts/minute. For CYLITVTPVYADGPGSPESIKAYL [Peptide E50], the Counts/minute bound was 1260 counts/minute. Regarding SVIILKYNIQYRTKDASTWSQIPP [Peptide E26], the Counts/minute bound came to 2830 counts/minute. As for KGPTVRTKKVGKNEAVLEWDQLPV [Peptide E53], the Counts/minute bound came to 1640 counts/minute. Consider TQGYRTVQLVWKTLPPFEANGKIL [Peptide E35], for which the Counts/minute bound was found to be 1170 counts/minute. On to VEWTTPRESVKKYILEWCVLSDKA [Peptide E45], for which the Counts/minute bound was found to be 1390 counts/minute.

For the molecule CMKEDGKGYWSDWSEEASGITYED [Peptide E31], the Counts/minute bound worked out at 1730 counts/minute. With MLTLQTWVVQALFIFLTTESTGEL [Peptide E1], the Counts/minute bound worked out at 3360 counts/minute. For IIGNETAVNVDSSHTEYTLSSLTS [Peptide E57], the Counts/minute bound is 1230 counts/minute. In the case of PFTEYVFRIRCMKEDGKGYWSDWS [Peptide E30], the Counts/minute bound came out at 1260 counts/minute. The same measure, in the same setting: for KKYILEWCVLSDKAPCITDWQQED [Peptide E46] the value was 1710 counts/minute.

Consider ALFIFLTTESTGELLDPCGYISPE [Peptide E2], for which the Counts/minute bound turned out to be 1530 counts/minute. With KAFPKDNMLWVEWTTPRESVKKYI [Peptide E44], the Counts/minute bound was 1180 counts/minute. As for LEQNVYGITIISGLPPEKPKNLSC [Peptide E12], the Counts/minute bound amounted to 1670 counts/minute. Still for that read-out and setting: then YRTKDASTWSQIPPEDTASTRSSF [Peptide E27], with 1160 counts/minute; and ISPESPVVQLHSNFTAVCVLKEKC [Peptide E4], with 1500 counts/minute. KSEWATHKFADCKAKRDTPTSCTV [Peptide E17]: the Counts/minute bound worked out at 1410 counts/minute. On the same count and under the same terms, for SCTVDYSTVYFVNIEVWVEAENAL [Peptide E19] the value was 3320 counts/minute.

With KAYLKQAPPSKGPTVRTKKVGKNE [Peptide E52], the Counts/minute bound worked out at 1820 counts/minute. Still for that read-out and setting: then LTNDRYLATLTVRNLVGKSDAAVL [Peptide E40], with 4800 counts/minute. On the same count and under the same terms, for ENALGKVTSDHINFDPVYKVKPNP [Peptide E21] the value was 1120 counts/minute. Take GKNEAVLEWDQLPVDVQNGFIRNY [Peptide E54]: the Counts/minute bound was found to be 1310 counts/minute. The same measure, in the same setting: then IINRTASSVTFTDIASLNIQLTCN [Peptide E9], with 1630 counts/minute; and IRNYTIFYRTIIGNETAVNVDSSH [Peptide E56], with 1640 counts/minute; and TGELLDPCGYISPESPVVQLHSNF [Peptide E3], with 1300 counts/minute.

As for GKILDYEVTLTRWKSHLQNYTVNA [Peptide E37], the Counts/minute bound came out at 1790 counts/minute. In the case of QIPPEDTASTRSSFTVQDLKPFTE [Peptide E28], the Counts/minute bound was determined as 1200 counts/minute.

As for KPNPPHNLSVINSEELSSILKLTW [Peptide E23], the Counts/minute bound was 1410 counts/minute. Still for that read-out and setting: then ADGPGSPESIKAYLKQAPPSKGPT [Peptide E51], with 1190 counts/minute.

FQATHPVMDLKAFPKDNMLWVEWT [Peptide E43]: the Counts/minute bound is 1300 counts/minute.

On to KLTWTNPSIKSVIILKYNIQYRTK [Peptide E25], for which the Counts/minute bound came to 10300 counts/minute.

Regarding FVNIEVWVEAENALGKVTSDHINF [Peptide E20], the Counts/minute bound stood at 1410 counts/minute. As to NLSCIVNEGKKMRCEWDGGRETHL [Peptide E14], the Counts/minute bound is 1170 counts/minute. For QLPVDVQNGFIRNYTIFYRTIIGN [Peptide E55], the Counts/minute bound is 4360 counts/minute. As to TRWKSHLQNYTVNATKLTVNLTND [Peptide E38], the Counts/minute bound was 3650 counts/minute. For AAVLTIPACDFQATHPVMDLKAFP [Peptide E42], the Counts/minute bound was found to be 1120 counts/minute. Same read-out and setting: then ETHLETNFTLKSEWATHKFADCKA [Peptide E16], with 1040 counts/minute. The same measure, in the same setting: for TVNATKLTVNLTNDRYLATLTVRN [Peptide E39] the value was 4360 counts/minute. As for SFWYKIDPSHTQGYRTVQLVWKTL [Peptide E34], the Counts/minute bound is 1140 counts/minute.

In the case of DCKAKRDTPTSCTVDYSTVYFVNI [Peptide E18], the Counts/minute bound came to 1550 counts/minute.

For FTDIASLNIQLTCNILTFGQLEQN [Peptide E10], the Counts/minute bound was found to be 3380 counts/minute.

Consider QQEDGTVHRTYLRGNLAESKCYLI [Peptide E48], for which the Counts/minute bound stood at 1080 counts/minute.

As for TVRNLVGKSDAAVLTIPACDFQAT [Peptide E41], the Counts/minute bound is 1100 counts/minute. As for HINFDPVYKVKPNPPHNLSVINSE [Peptide E22], the Counts/minute bound was 1730 counts/minute. For the molecule NANYIVWKTNHFTIPKEQYTIINR [Peptide E7], the Counts/minute bound turned out to be 1330 counts/minute. Consider YLRGNLAESKCYLITVTPVYADGP [Peptide E49], for which the Counts/minute bound was 1540 counts/minute. Still for that read-out and setting: for KEKCMDYFHVNANYIVWKTNHFTI [Peptide E6] the value was 1440 counts/minute. As to INSEELSSILKLTWTNPSIKSVII [Peptide E24], the Counts/minute bound worked out at 1010 counts/minute.

For TYEDRPSKAPSFWYKIDPSHTQGY [Peptide E33], the Counts/minute bound was determined as 1220 counts/minute. On to WKTLPPFEANGKILDYEVTLTRWK [Peptide E36], for which the Counts/minute bound was determined as 1460 counts/minute. Regarding ISGLPPEKPKNLSCIVNEGKKMRC [Peptide E13], the Counts/minute bound came out at 1200 counts/minute. With HSNFTAVCVLKEKCMDYFHVNANY [Peptide E5], the Counts/minute bound was 1290 counts/minute.

The next assay has as its target T1, recombinant human IL-6. Kind of assay: radioiodinated IL-6 on peptide array. This is another data set of the same source. The procedure:
Synthetic peptide arrays were constructed in 96-well microtiter plates in accordance with the method set forth in WO 91/02714 (Saxinger), and used to test the binding of recombinant human IL-6 that had been labeled with radioactive iodine (radiolabeling by standard methods). After incubating the radiolabeled IL-6 ligand in a well with each synthetic peptide, a washing step was performed to remove unbound label, and the relative level of radioactivity remaining in each well of the plate was evaluated to determine the relative affinity of each peptide for IL-6 ligand.
Regarding LVRKFQNS [Peptide B31], the Counts/minute bound was determined as 2520 counts/minute. On to VRKFQNS (also called VRKFQNS) [Peptide B32], for which the Counts/minute bound was determined as 1180 counts/minute.
